{"source": "paper doi:10.1101/2025.02.04.636414", "about": "“The mechanics of a continuous self-assembling surface-layer aids cell division in an archaeon” (bioRxiv, 2025)", "proteins": {"B1": {"name": "exogenous unlabelled S-layer protein SlaA, purified from wild-type S. acidocaldarius DSM639 (natural protein, UniProt Q4J6E5 25-1424, looked up)", "chain": "ITTTALTPPVSAGGIQAYLLTGSGAPASGLVLFVVNVSNIQVSSSNVTNVISTVVSNIQINAKTENAQTGATTGSVTVRFPTSGYNAYYDSVDKVVFVVVSFLYPYTTTSVNIPLSYLSKYLPGLLTAQPYDETGAQVTSVSSTPFGSLIDTSTGQQILGTNPVLTSYNSYTTQANTNMQEGVVSGTLTSFTLGGQSFSGSTVPVILYAPFIFSNSPYQAGLYNPMQVNGNLGSLSSEAYYHPVIWGRALINTTLIDTYASGSVPFTFQLNYSVPGPLTINMAQLAWIASINNLPTSFTYLSYKFSNGYESFLGIISNSTQLTAGALTINPSGNFTINGKKFYVYLLVVGSTNSTTPVEYVTKLVVEYPSSTNFLPQGVTVTTSSNKYTLPVYEIGGPAGTTITLTGNWYSTPYTVQITVGSTPTLTNYVSQILLKAVAYEGINVSTTQSPYYSTAILSTPPSEISITGSSTITAQGKLTATSASATVNLLTNATLTYENIPLTQYSFNGIIVTPGYAAINGTTAMAYVIGALYNKTSDYVLSFAGSQEPMQVMNNNLTEVTTLAPFGLTLLAPSVPATETGTSPLQLEFFTVPSTSYIALVDFGLWGNLTSVTVSAYDTVNNKLSVNLGYFYGIVIPPSISTAPYNYQNFICPNNYVTVTIYDPDAVLDPYPSGSFTTSSLPLKYGNMNITGAVIFPGSSVYNPSGVFGYSNFNKGAAVTTFTYTAQSGPFSPVALTGNTNYLSQYADNNPTDNYYFIQTVNGMPVLMGGLSIVASPVSASLPSSTSSPGFMYLLPSAAQVPSPLPGMATPNYNLNIYITYKIDGATVGNNMINGLYVASQNTLIYVVPNGSFVGSNIKLTYTTTDYAVLHYFYSTGQYKVFKTVSVPNVTANLYFPSSTTPLYQLSVPLYLSEPYYGSPLPTYIGLGTNGTSLWNSPNYVLFGVSAVQQYLGFIKSISVTLSNGTTVVIPLTTSNMQTLFPQLVGQELQACNGTFQFGISITGLEKLLNLNVQQLNNSILSVTYHDYVTGETLTATTKLVALSTLSLVAKGAGVVEFLLTAYPYTGNITFAPPWFIAENVVKQPFMTYSDLQFAKTNPSAILSLSTVNITVVGLGGKASVYYNSTSGQTVITNIYGQTVATLSGNVLPTLTELAAGNGTFTGSLQFTIVPNNTVVQIPSSLTKTSFAVYTNGSLAIVLNGKAYSLGPAGLFLLPFVTYTGSAIGANATAIITVSDGVGTSTTQVPITAENFTPIRLAPFQVPAQVPLPNAPKLKYEYNGSIVITPQQQVLKIYVTSILPYPQEFQIQAFVYEASQFNVHTGSPTAAPVYFSYSAVRAYPALGIGTSVPNLLVYVQLQGISNLPAGKYVIVLSAVPFAGGPVLSEYPAQLIFTNVTLTQ", "modifications": "highly glycosylated", "notes": "S-layer protein SlaA, Sulfolobus acidocaldarius DSM639, gene saci2355; endogenous protein extracted from the cell surface; The purified preparation also holds SlaB (mass spectrometry, Coomassie gel); also called unlabelled exogeneous S-layer proteins; purified S-layer proteins"}}, "biological_target": "the molecule itself", "assay": "cryo-EM imaging of cells; unlabelled purified S-layer proteins added to Vps4 E209Q ΔslaA cells at 75°C for 1 h; cells plunge frozen and imaged (Glacios 200 kV); S-layer lattice seen on the cell surface", "data": [{"protein": "B1", "values": [{"measurement": "binding result", "value": "binds"}]}]}
